Tests used:
[1] = biological target: Biotinylated green fluorescent protein (biotin-GFP); test: native-PAGE, dissociation under excess biotin, 37 °C, 10 h
[2] = biological target: Biotinylated green fluorescent protein (biotin-GFP); test: native-PAGE, dissociation under excess biotin, 45 °C, 10 h
[3] = biological target: Biotinylated green fluorescent protein (biotin-GFP); test: native-PAGE, dissociation under excess biotin, 23 °C, 10 h

“Neutravidin (NA) (from UniProt P02701 25-152)” was tested, and the percent of biotin conjugate dissociated after 10 h [1] was 16%, the percent of biotin conjugate dissociated after 10 h [2] was 32% and the percent of biotin conjugate dissociated after 10 h [3] was 6.8%.
